Article PMC10862009, “Generation of antibodies to an extracellular region of the transporters Glut1/Glut4 by immunization with a designed antigen” (The Journal of Biological Chemistry, 2024)
Blank lines part the entries; values can stand above or below the binder they belong to.

How the values were obtained:
[1] = biological target: T1, full-length Glut1 as a recombinant protein (Homo sapiens, UniProt P11166); experiment: SPR; Biacore 8K; His-tagged Glut1 captured by anti-His antibodies on a CM5 chip; VHH injected at 123 nM-10 μM, single-cycle kinetics; 25 mM Mes-NaOH pH 6.0, 150 mM NaCl, 5% glycerol, 0.05% n-dodecyl-β-D-maltoside, 25 °C; details: both partners purified
T1 construct: glucose transporter 1 (Glut1), human, full length; also called glucose transporter 1; full-length Glut1 in micelles; source: High Five insect cells (baculovirus), purified (solubilised with n-dodecyl-β-D-maltopyranoside, Ni-NTA, SEC); not shown: His10, C-terminal, kept

Anti-Glut4 VHH = biological target: T2, Anti-Glut4 VHH (alpaca); experiment: ITC; 10 uM VHH in the cell; 100 uM fusion protein (or scaffold protein Adhiron-WT) titrated, 20 injections of 2 ul at intervals of 120 s; PBS pH 7.4, 25 °C; n = 3, mean ± s.e.m.; details: both partners purified
T2 construct: alpaca VHH; selected by phage display from an alpaca immunized with Adhiron-Glut4; also called the VHH; anti-Glut4 VHH antibody; source: E. coli BL21(DE3), purified (Ni-NTA, SEC)

Fc-VHH antibody of VHH4 [2] = biological target: T3, Fc-VHH antibody of VHH4 (alpaca); experiment: flow cytometry on cells; Expi293 cells transfected with Glut1 against empty vector; 1 μM Fc-VHH with Alexa Fluor 488 anti-human IgG, on ice 60 min; details: one partner purified
T3 construct: as the VHH of m6; form used for flow cytometry; source: ExpiCHO, transfected, purified from the supernatant (rProtein A Sepharose, SEC); not shown: Fc (Fc region of trastuzumab), C-terminal, kept

Fc-VHH antibody of VHH5 [3] = biological target: T4, Fc-VHH antibody of VHH5 (alpaca); experiment: as above; details: one partner purified
T4 construct: as the VHH of m7; form used for flow cytometry; source: ExpiCHO, transfected, purified from the supernatant (rProtein A Sepharose, SEC); not shown: Fc (Fc region of trastuzumab), C-terminal, kept

Fc-VHH antibody of VHH4 [4] = biological target: T3, Fc-VHH antibody of VHH4; experiment: flow cytometry on cells; HCT116 cells with endogenous Glut1; 1 μM Fc-VHH with Alexa Fluor 488 anti-human IgG, on ice 60 min; details: one partner purified
Fc-VHH antibody of VHH5 [5] = biological target: T4, Fc-VHH antibody of VHH5; experiment: as above; details: one partner purified

T2 sequence (VHH, as listed by the source): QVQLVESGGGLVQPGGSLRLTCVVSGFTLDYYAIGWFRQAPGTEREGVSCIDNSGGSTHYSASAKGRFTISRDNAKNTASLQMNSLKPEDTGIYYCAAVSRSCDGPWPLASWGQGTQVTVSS

B1: VHH5 with a FLAG tag (VHH)
VHH: ELQLVESGGGLVQPGGSLRLSCAVSGVAFEDYAIGWFRQAPGKEREGVSCISSGSGSRIYTDSVKGRFTVSRDNPKNTVDLQMDSLKPEDTAVYYCAAERDYYCSGYPTYRAFSSWGEGTQVTVSS
notes: as the VHH of m7; Form prepared for SPR; source: E. coli BL21(DE3), purified (DDDDK-tagged Protein Purification Gel, SEC)
binding result [1]: binds

B4: Glut1 overexpressed on Expi293 cells (natural protein, human, UniProt P11166 1-492, looked up)
chain: MEPSSKKLTGRLMLAVGGAVLGSLQFGYNTGVINAPQKVIEEFYNQTWVHRYGESILPTTLTTLWSLSVAIFSVGGMIGSFSVGLFVNRFGRRNSMLMMNLLAFVSAVLMGFSKLGKSFEMLILGRFIIGVYCGLTTGFVPMYVGEVSPTALRGALGTLHQLGIVVGILIAQVFGLDSIMGNKDLWPLLLSIIFIPALLQCIVLPFCPESPRFLLINRNEENRAKSVLKKLRGTADVTHDLQEMKEESRQMMREKKVTILELFRSPAYRQPILIAVVLQLSQQLSGINAVFYYSTSIFEKAGVQQPVYATIGSGIVNTAFTVVSLFVVERAGRRTLHLIGLAGMAGCAILMTIALALLEQLPWMSYLSIVAIFGFVAFFEVGPGPIPWFIVAELFSQGPRPAAIAVAGFSNWTSNFIVGMCFQYVEQLCGPYVFIIFTVLLVLFFIFTYFKVPETKGRTFDEIASGFRQGGASQSDKTPEELFHPLGADSQV
notes: glucose transporter 1 (Glut1), human, on the surface of transfected Expi293 cells; also called Glut1 on the cell membrane; overexpressed Glut1; source: Expi293, transfected (pcDNA 3.4), on cells
binding result (Fc-VHH antibody of VHH4 [2]): binds
binding result (Fc-VHH antibody of VHH5 [3]): binds

B5: endogenous Glut1 on HCT116 cells (natural protein, human (endogenous in HCT116), UniProt P11166 1-492, looked up)
chain: MEPSSKKLTGRLMLAVGGAVLGSLQFGYNTGVINAPQKVIEEFYNQTWVHRYGESILPTTLTTLWSLSVAIFSVGGMIGSFSVGLFVNRFGRRNSMLMMNLLAFVSAVLMGFSKLGKSFEMLILGRFIIGVYCGLTTGFVPMYVGEVSPTALRGALGTLHQLGIVVGILIAQVFGLDSIMGNKDLWPLLLSIIFIPALLQCIVLPFCPESPRFLLINRNEENRAKSVLKKLRGTADVTHDLQEMKEESRQMMREKKVTILELFRSPAYRQPILIAVVLQLSQQLSGINAVFYYSTSIFEKAGVQQPVYATIGSGIVNTAFTVVSLFVVERAGRRTLHLIGLAGMAGCAILMTIALALLEQLPWMSYLSIVAIFGFVAFFEVGPGPIPWFIVAELFSQGPRPAAIAVAGFSNWTSNFIVGMCFQYVEQLCGPYVFIIFTVLLVLFFIFTYFKVPETKGRTFDEIASGFRQGGASQSDKTPEELFHPLGADSQV
notes: glucose transporter 1 (Glut1), endogenous on the surface of HCT116 colon cancer cells; source: endogenous, on HCT116 cells
binding result (Fc-VHH antibody of VHH4 [4]): binds
binding result (Fc-VHH antibody of VHH5 [5]): binds

More lines, now with the values ahead:

binding result [1]: binds
B2: VHH4 with a FLAG tag (VHH)
VHH: EVQLVESGGGLVQPGGSLRLSCAASGFTLDRYAIGWFRQAPGKEREGISCISSGSGSRVYADSVKGRFTVSRDNVENTVSLEMNSLKPEDTAVYYCAAEADYYCSGYPIYRKFGSWGQGTQVTVSS
notes: as the VHH of m6; Form prepared for SPR; source: E. coli BL21(DE3), purified (DDDDK-tagged Protein Purification Gel, SEC)

Kd (Anti-Glut4 VHH): 3.67 nM
stoichiometry N (Anti-Glut4 VHH): 1.02
B3: Adhiron-Glut4 (other)
chain: ENSLEIEELARFAVDEHNKKENALLEFVRVVKAKEQGGGGSAPQKVIEQSYNETWLGRQGPEGPSSIPPGTLTTLWALSVGGGGSTMYYLTLEAKDGGKKKLYEAKVWVKPWENFKELQEFKPV
modifications: Limits of the Glut4 graft are not printed: 47-85 is the homologue of Glut1 35-69 (two extracellular helices). Graft site is assumed to be as in Adhiron-Glut1: loop 47VVAG50 (entity 37-40, offset 10) …
